Data on 22 molecules can be found in paper PMC7811519, “Unusual DNA-binding properties of the Arabidopsis thaliana WRKY50 transcription factor at target gene promoters”.

B1: S21 (CRM-ATBBE4) (dsDNA)
DNA 1: TTTATGTTTGACTTTTGTCATATAG
DNA 2: CTATATGACAAAAGTCAAACATAAA
B2: S24 (CRM1-WRKY30) (dsDNA)
DNA 1: TGGTCAGCATGTTGGACTTTCCAAATTCATTGACC
DNA 2: GGTCAATGAATTTGGAAAGTCCAACATGCTGACCA
B3: S15 (CRM-DJ1E) (dsDNA)
DNA 1: AGGACTTTTCACCAGTTGGACTTTGAAGCCACCAA
DNA 2: TTGGTGGCTTCAAAGTCCAACTGGTGAAAAGTCCT
B4: S22 (CRM2-WRKY30) (dsDNA)
DNA 1: GAGAGAGATAGTTTGACTTTTTGACTGAAGAACGA
DNA 2: TCGTTCTTCAGTCAAAAAGTCAAACTATCTCTCTC
B5: S15mut1 (dsDNA)
DNA 1: AGAGTCCCCCACCAGTTGGACTTTGAAGCCACCAA
DNA 2: TTGGTGGCTTCAAAGTCCAACTGGTGGGGGACTCT
B6: S15mut13 (dsDNA)
DNA 1: AGAGTCCCCCACCAGTTGAGTCCCAAAGCCACCAA
DNA 2: TTGGTGGCTTTGGGACTCAACTGGTGGGGGACTCT
B7: S15mut3 (dsDNA)
DNA 1: AGGACTTTTCACCAGTTGAGTCCCAAAGCCACCAA
DNA 2: TTGGTGGCTTTGGGACTCAACTGGTGAAAAGTCCT
B8: S15mut2 (dsDNA)
DNA 1: AGGACTTTTTCTTCACCAGACTTTGAAGCCACCAA
DNA 2: TTGGTGGCTTCAAAGTCTGGTGAAGAAAAAGTCCT
B9: S15mut4 (dsDNA)
DNA 1: AGGACTTTTCACCAGTTGGACTTTGGGATTGTTGG
DNA 2: CCAACAATCCCAAAGTCCAACTGGTGAAAAGTCCT
B10: S21mut5 (dsDNA)
DNA 1: TTTATGTTTGACTCCCGTCATATAG
DNA 2: CTATATGACGGGAGTCAAACATAAA
B11: S21mut3 (dsDNA)
DNA 1: TTTATGTCCAGTATTTACTGTATAG
DNA 2: CTATACAGTAAATACTGGACATAAA
B12: S21mut2 (dsDNA)
DNA 1: TTTATGTTTGACTTTTACTGTATAG
DNA 2: CTATACAGTAAAAGTCAAACATAAA
B13: S21mut1 (dsDNA)
DNA 1: TTTATGTCCAGTATTTGTCATATAG
DNA 2: CTATATGACAAATACTGGACATAAA
B14: S21mut4 (dsDNA)
DNA 1: TTTATGTTTAGTCCCTGTCATATAG
DNA 2: CTATATGACAGGGACTAAACATAAA
B15: S22mut5 (dsDNA)
DNA 1: B4 DNA 1 with T19C, T20C
DNA 2: B4 DNA 2 with A16G, A17G
B16: S22mut4 (dsDNA)
DNA 1: GAGAGAGATAGTTTAGTCCCCCGACTGAAGAACGA
DNA 2: TCGTTCTTCAGTCGGGGGACTAAACTATCTCTCTC
B17: S22mut2 (dsDNA)
DNA 1: GAGAGAGATAGTCCAGTCTTTTGACTGAAGAACGA
DNA 2: TCGTTCTTCAGTCAAAAGACTGGACTATCTCTCTC
B18: S22mut3 (dsDNA)
DNA 1: GAGAGAGATAGTCCAGTCTTCCAGTCGAAGAACGA
DNA 2: TCGTTCTTCGACTGGAAGACTGGACTATCTCTCTC
B19: S24mut2 (dsDNA)
DNA 1: TAACTGGCATGTTGGACTTTCCAAATTCACCAGTT
DNA 2: AACTGGTGAATTTGGAAAGTCCAACATGCCAGTTA
B20: S24mut8 (dsDNA)
DNA 1: TGGTCAATGCACCGGACTTTCCAAATTCATTGACC
DNA 2: GGTCAATGAATTTGGAAAGTCCGGTGCATTGACCA
B21: S24mut9 (dsDNA)
DNA 1: TGGTCAGCATGTTGGACTTTCCGGGCCTGTTGACC
DNA 2: GGTCAACAGGCCCGGAAAGTCCAACATGCTGACCA
B22: S24mut7 (dsDNA)
DNA 1: TAACTGGCATGTTAAGTCCCTTAAATTCACCAGTT
DNA 2: AACTGGTGAATTTAAGGGACTTAACATGCCAGTTA

Numbering of substitutions follows the chain as printed.

Sequence of WRKY50 full length (Q8VWQ5 whole entry): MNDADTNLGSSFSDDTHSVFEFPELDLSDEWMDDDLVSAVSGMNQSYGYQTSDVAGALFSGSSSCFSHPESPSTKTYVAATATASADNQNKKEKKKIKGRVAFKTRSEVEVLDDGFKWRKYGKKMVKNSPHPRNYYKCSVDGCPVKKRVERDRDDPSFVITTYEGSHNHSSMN

The first data set has as its target WRKY50 full length (Arabidopsis thaliana Col-0, UniProt Q8VWQ5 1-173). Briefly: EMSA; EMSA with 4-5 ug recombinant protein, 32P probe, 100-fold molar excess competitor; binding buffer, salt, pH and temperature not given (cites Kanofsky et al. 2018). The note with it: label: 32P end label (as probe). On the technique in general: In EMSA bound probe runs differently from free probe, usually more slowly.
For the molecule B1, the binding result is “no binding”.

For the next data set, the target named is T1, WRKY50BD (Arabidopsis thaliana Col-0, UniProt Q8VWQ5 86-173). The data set is described as above. The note with it: tags: His tag (pQE-30, Ni purification; tag not spelled out), label: 32P end label (as probe).
T1 sequence (Q8VWQ5 86-173): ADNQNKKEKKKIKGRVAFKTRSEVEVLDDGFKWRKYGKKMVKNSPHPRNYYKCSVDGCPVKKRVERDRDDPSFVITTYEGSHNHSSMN
Regarding B2, the binding result was “binds”. Turning to B3, the binding result is given as “binds”.

Take B4: the binding result is recorded as “binds”. On the same count and under the same terms, then B1, with “binds”.

Another data set addresses T1, WRKY50BD. Nature of the data set: competition EMSA; 100-fold excess vs S15 probe; EMSA with 4-5 ug recombinant protein, 32P probe, 100-fold molar excess competitor; binding buffer, salt, pH and temperature not given (cites Kanofsky et al. 2018). The note with it: tags: His tag (pQE-30, Ni purification; tag not spelled out).
Take B5: the binding result is reported as “binds”.

For B6, the binding result is listed as “no binding”.

For the molecule B7, the binding result was “binds”. As for B8, the binding result is “binds”. Consider B9, for which the binding result is listed as “binds”.

For the next data set, the target named is T1, WRKY50BD. Briefly: competition EMSA; 100-fold excess vs S21 probe; EMSA with 4-5 ug recombinant protein, 32P probe, 100-fold molar excess competitor; binding buffer, salt, pH and temperature not given (cites Kanofsky et al. 2018). The settings on record: tags: His tag (pQE-30, Ni purification; tag not spelled out).
Consider B10, for which the binding result was “no binding”. Turning to B11, the binding result is “no binding”. B12: the binding result is “binds”. With B13, the binding result is “no binding”.

Consider B14, for which the binding result is on record as “no binding”.

The target of the next data set is T1, WRKY50BD. Nature of the data set: competition EMSA; 100-fold excess vs S22 probe; EMSA with 4-5 ug recombinant protein, 32P probe, 100-fold molar excess competitor; binding buffer, salt, pH and temperature not given (cites Kanofsky et al. 2018). The settings on record: tags: His tag (pQE-30, Ni purification; tag not spelled out).
On to B15, for which the binding result is given as “no binding”. B16: the binding result is recorded as “no binding”. With B17, the binding result is “no binding”. Same read-out and setting: the value for B18 was “no binding”.

In another data set the target is T1, WRKY50BD. Briefly: competition EMSA; 100-fold excess vs S24 probe; EMSA with 4-5 ug recombinant protein, 32P probe, 100-fold molar excess competitor; binding buffer, salt, pH and temperature not given (cites Kanofsky et al. 2018). The settings on record: tags: His tag (pQE-30, Ni purification; tag not spelled out).
As to B19, the binding result was “binds”. Turning to B20, the binding result is listed as “binds”. In the case of B21, the binding result is “binds”. With B22, the binding result was “no binding”.
